Source: US20160022834A1

Target: rat anti-DNP (IgG^DNP, clone: LO-DNP-2) photocrosslinked with IBA-biotin
Assay: ELISA, anti-Fc HRP secondary on UV exposed IBA-biotin photocrosslinked IgG^DNP (antigen-bound or directly adsorbed), relative to no UV

Fc recognition (percent activity at 2.0 J/cm^2 UV): 75%
Substance: HRP-conjugated IgG Fcγ specific goat anti-rat (antibody)
